# Measured values: article PMC8956665, “Structural and molecular rationale for the diversification of resistance mediated by the Antibiotic_NAT family” (Communications Biology, 2022)
# Target: meta-AAC0038^H168A (not stated (soil metagenome))
# Assay: crystal structure
substance,measurement,value
meta-AAC0038^H168A (enzyme),stoichiometry N,2
